According to patent US11795460B2, “Compositions and methods for TTR gene editing and treating ATTR amyloidosis” (Intellia Therapeutics, Inc., priority 2017, dated 2023):
Strand notation (5' to 3'): a small letter for the sugar, then the base; units joined by * are phosphorothioate-linked, units joined directly phosphodiester-linked; [ ] holds rarer units or linkages, { } end groups; capitals alone tell only the bases. m = 2'-O-methyl; r = 2'-OH (RNA)

B1: G000480: TTR sgRNA modified sequence, Human, SEQ ID No. 87; guide sequence of CR003353 (nucleic acid)
guide: mA*mA*mA*rGrGrCrUrGrCrUrGrArUrGrArCrArCrCrUrGrUrUrUrUrArGrAmGmCmUmAmGmAmAmAmUmAmGmCrArArGrUrUrArArArArUrArArGrGrCrUrArGrUrCrCrGrUrUrArUrCrAmAmCmUmUmGmAmAmAmAmAmGmUmGmGmCmAmCmCmGmAmGmUmCmGmGmUmGmCmU*mU*mU*mU
B2: G000489: TTR sgRNA modified sequence, Human, SEQ ID No. 96; guide sequence of CR003344 (nucleic acid)
guide: mU*mU*mU*rGrArCrCrArUrCrArGrArGrGrArCrArCrUrGrUrUrUrUrArGrAmGmCmUmAmGmAmAmAmUmAmGmCrArArGrUrUrArArArArUrArArGrGrCrUrArGrUrCrCrGrUrUrArUrCrAmAmCmUmUmGmAmAmAmAmAmGmUmGmGmCmAmCmCmGmAmGmUmCmGmGmUmGmCmU*mU*mU*mU
B3: G000488: TTR sgRNA modified sequence, Human, SEQ ID No. 95; guide sequence of CR003346 (nucleic acid)
guide: mA*mA*mA*rGrUrUrCrUrArGrArUrGrCrUrGrUrCrCrGrGrUrUrUrUrArGrAmGmCmUmAmGmAmAmAmUmAmGmCrArArGrUrUrArArArArUrArArGrGrCrUrArGrUrCrCrGrUrUrArUrCrAmAmCmUmUmGmAmAmAmAmAmGmUmGmGmCmAmCmCmGmAmGmUmCmGmGmUmGmCmU*mU*mU*mU
B4: G000482: TTR sgRNA modified sequence, Human, SEQ ID No. 89; guide sequence of CR003365 (nucleic acid)
guide: mU*mG*mU*rArGrArArGrGrGrArUrArUrArCrArArArGrGrUrUrUrUrArGrAmGmCmUmAmGmAmAmAmUmAmGmCrArArGrUrUrArArArArUrArArGrGrCrUrArGrUrCrCrGrUrUrArUrCrAmAmCmUmUmGmAmAmAmAmAmGmUmGmGmCmAmCmCmGmAmGmUmCmGmGmUmGmCmU*mU*mU*mU
B5: G000486: TTR sgRNA modified sequence, Human, SEQ ID No. 93; guide sequence of CR003339 (nucleic acid)
guide: mA*mC*mA*rCrArArArUrArCrCrArGrUrCrCrArGrCrArGrUrUrUrUrArGrAmGmCmUmAmGmAmAmAmUmAmGmCrArArGrUrUrArArArArUrArArGrGrCrUrArGrUrCrCrGrUrUrArUrCrAmAmCmUmUmGmAmAmAmAmAmGmUmGmGmCmAmCmCmGmAmGmUmCmGmGmUmGmCmU*mU*mU*mU
B6: G000502: TTR Cyno specific sgRNA modified sequence, SEQ ID No. 114; guide sequence of CR000689; cross homologous between mouse and cyno (nucleic acid)
guide: mA*mC*mA*rCrArArArUrArCrCrArGrUrCrCrArGrCrGrGrUrUrUrUrArGrAmGmCmUmAmGmAmAmAmUmAmGmCrArArGrUrUrArArArArUrArArGrGrCrUrArGrUrCrCrGrUrUrArUrCrAmAmCmUmUmGmAmAmAmAmAmGmUmGmGmCmAmCmCmGmAmGmUmCmGmGmUmGmCmU*mU*mU*mU
B7: G000481: TTR sgRNA modified sequence, Human, SEQ ID No. 88; guide sequence of CR003345 (nucleic acid)
guide: mU*mC*mU*rArGrArArCrUrUrUrGrArCrCrArUrCrArGrGrUrUrUrUrArGrAmGmCmUmAmGmAmAmAmUmAmGmCrArArGrUrUrArArArArUrArArGrGrCrUrArGrUrCrCrGrUrUrArUrCrAmAmCmUmUmGmAmAmAmAmAmGmUmGmGmCmAmCmCmGmAmGmUmCmGmGmUmGmCmU*mU*mU*mU

How the values were obtained:
TTR mRNA = TTR mRNA knockdown in primary human hepatocytes by quantitative PCR (Tables 34, 35); assay type: cell-based; conditions: TTR mRNA in PHH, 96 hours after treatment, vs untreated control
Procedure: In one experiment, PHH were cultured and treated with LNPs comprising Cas9 mRNA (SEQ ID NO:1) and a gRNA of interest (See FIG. 29, Table 34), as described in Example 4. The LNPs were prepared using the cross-flow procedure described above and purified and concentrated using PD-10 columns and Amicon centrifugal filter units, respectively. The LNPs were formulated with an N:P ratio of 6.0 and contained Lipid A, Cholesterol, DSPC, and PEG2k-DMG in a 50:38:9:2 molar ratio, respectively. The LNPs comprised a gRNA:mRNA ratio of 1:2, and the cells were treated at a dose of 300 ng (with respect to the amount of mRNA cargo delivered).
(§1) Ninety-six (96) hours following LNP treatment (with biological triplicates for each condition), mRNA was purified from PHH cells using the Dynabeads mRNA DIRECT Kit (ThermoFisher Scientific) according to the manufacturer's protocol. Reverse Transcription (RT) was performed with Maxima reverse transcriptase (ThermoFisher Scientific) and a poly-dT primer. The resulting cDNA was purified with Ampure XP Beads (Agencourt). For Quantitative PCR, 2% of the purified cDNA was amplified with Taqman Fast Advanced Mastermix and 3 Taqman probe sets, TTR (Assay ID: Hs00174914_m1), GAPDH (Assay ID: Hs02786624_g1), and PPIB (Assay ID: Hs00168719_m1). The assays were run on the QuantStudio 7 Flex Real Time PCR System according to the manufacturer's instructions (Life Technologies). Relative expression of TTR mRNA was calculated by normalizing to the endogenous controls (GAPDH and PPIB) individually, and then averaged.
In a separate experiment, TTR mRNA knockdown was evaluated following treatment with LNPs comprising G000480, G000486, and G000502. The LNPs were formulated and PHH were cultured and treated with the LNPs, each as described in the experiment above in this Example with the exception that the cells were treated at a dose of 100 ng (with respect to the amount of mRNA cargo delivered).
as §1, with “(single treatment” for “(with biological triplicates”, “the High Capacity cDNA Reverse Transcription Kit” for “Maxima reverse transcriptase”, “according to the manufacturer's instructions.” for “and a poly-dT primer. The resulting cDNA was purified with Ampure XP Beads (Agencourt).”, “the” for “the purified”

TTR = TTR editing in primary cyno hepatocytes electroporated with Spy Cas9 protein and sgRNAs (Tables 14, 15); assay type: cell-based, cynomolgus monkey
Outline: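 Spy Cas9 RNPs with boiled sgRNAs electroporated (Lonza P3 buffer, program EX-147) into primary cynomolgus hepatocytes; harvest at 24, 48 or 72 h. TTR target site PCR-amplified and sequenced on Illumina MiSeq, reads aligned to mf5; percent editing is reads with indels or substitutions over total reads.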

[1] = LNP dose 100 ng mRNA cargo, separate experiment
[2] = LNP dose 300 ng mRNA cargo, gRNA:mRNA 1:2, biological triplicates
[3] = Table 14, primary cyno hepatocytes electroporated with Spy Cas9 protein (RNP) and sgRNAs
[4] = Table 15, primary cyno hepatocytes electroporated with Spy Cas9 protein (RNP) and cyno specific sgRNAs

Molecule | Avg % Knockdown (TTR mRNA; [1]) | Avg % Knockdown (TTR mRNA; [2]) | Avg % Deletion (TTR; [3]) | Avg % Edit (TTR; [3]) | Avg % Insert (TTR; [3]) | Avg % Deletion (TTR; [4]) | Avg % Edit (TTR; [4]) | Avg % Insert (TTR; [4])
B1 | 95.61% | 95.19% | 0.37% | 10.20% | 9.83% | – | – | –
B2 | – | 91.85% | 14.17% | 67.53% | 53.53% | – | – | –
B3 | – | 92.77% | 4.27% | 9.63% | 5.37% | – | – | –
B4 | – | 82.31% | 20.03% | 75.17% | 55.23% | – | – | –
B5 | 97.36% | – | 68.07% | 79.90% | 11.90% | – | – | –
B6 | 90.94% | – | – | – | – | 81.27% | 95.10% | 13.97%
B7 | – | 91.39% | 35.50% | 69.13% | 33.73% | – | – | –
